Experimental findings from patent JP2018127443A are described below.

The assay concerns the target T1, 変性rFXIII-A (human) (UniProt P00488).
T1 sequence: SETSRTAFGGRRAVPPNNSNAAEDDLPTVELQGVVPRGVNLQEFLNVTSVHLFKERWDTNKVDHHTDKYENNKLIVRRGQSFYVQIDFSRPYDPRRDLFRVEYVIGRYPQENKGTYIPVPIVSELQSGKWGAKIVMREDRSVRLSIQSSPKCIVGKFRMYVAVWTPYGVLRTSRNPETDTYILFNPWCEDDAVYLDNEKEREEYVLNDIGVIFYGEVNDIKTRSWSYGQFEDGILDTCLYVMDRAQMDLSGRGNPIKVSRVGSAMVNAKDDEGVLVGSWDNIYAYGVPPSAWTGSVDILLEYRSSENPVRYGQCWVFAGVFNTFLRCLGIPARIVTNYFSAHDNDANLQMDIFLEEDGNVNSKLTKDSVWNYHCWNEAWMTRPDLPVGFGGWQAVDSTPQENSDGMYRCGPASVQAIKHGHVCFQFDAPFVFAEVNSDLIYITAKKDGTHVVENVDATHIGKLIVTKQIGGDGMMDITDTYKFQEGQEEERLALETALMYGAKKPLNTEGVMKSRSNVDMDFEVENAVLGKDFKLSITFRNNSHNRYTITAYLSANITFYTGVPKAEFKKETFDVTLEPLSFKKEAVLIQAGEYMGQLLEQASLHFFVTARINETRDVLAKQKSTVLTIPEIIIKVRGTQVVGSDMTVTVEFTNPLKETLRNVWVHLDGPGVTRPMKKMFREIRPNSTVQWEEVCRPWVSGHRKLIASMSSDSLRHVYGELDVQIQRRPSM
Put plainly: solid-phase ELISA: denatured vs native rFXIII-A coated. A general note: An ELISA detects its analyte on a solid surface through an enzyme-linked reagent.

B1: ヒト抗FXIII-Aモノクローナル抗体 A75K (antibody, V domains shown)
VH: QVQLVESGGGVVQPGRSLSLSCAASGFNFISYGMHWVRQSPGKGLEWVAVISYDGSKKYYADFVKGRFTISRDNSKNTLFLQMNSLRGDDTAVFYCAKDRGFYGSGSSDYYYVMDVWGQGTTVTVSS
VL: DIQMTQSPSSLSASVGDRVTITCRASQGITNYLAWFQHKPGKAPKSLIYAASTLHRGVSSKFSGSGSGTDFTLTISNLQPEDFATYYCQQYKTYPITFGQGTRLDIK
Consider B1, for which the fold change of binding, denatured against native rFXIII-A came out at 2 fold.
